B1: variant CD155 IgV-Fc, T45Q, S52R, L104E (Fc fusion)
chain: WPPPGTGDVVVQAPTQVPGFLGDSVTLPCYLQVPNMEVTHVSQLQWARHGERGSMAVFHQTQGPSYSESKRLEFVAARLGAELRNASLRMFGLRVEDEGNYTCEFVTFPQGSRSVDIWLRVL
B2: variant PD-L1 K57R/S99G/R195G Fc fusion (Fc fusion)
chain: FTVTVPKDLYVVEYGSNMTIECKFPVEKQLDLAALIVYWEMEDKNIIQFVHGEEDLRVQHSSYRQRARLLKDQLSLGNAALQITDVKLQDAGVYRCMIGYGGADYKRITVKVNAPYNKINQRILVVDPVTSEHELTCQAEGYPKAEVIWTSSDHQVLSGKTTTTNSKREEKLFNVTSTLRINTTTNEIFYCTFRGLDPEENHTAELVIPELPLAHPPNER
B3: variant PD-L1 Y10F/M18V/S99G/Q138R/T203A Fc fusion (Fc fusion)
chain: FTVTVPKDLFVVEYGSNVTIECKFPVEKQLDLAALIVYWEMEDKNIIQFVHGEEDLKVQHSSYRQRARLLKDQLSLGNAALQITDVKLQDAGVYRCMIGYGGADYKRITVKVNAPYNKINQRILVVDPVTSEHELTCRAEGYPKAEVIWTSSDHQVLSGKTTTTNSKREEKLFNVTSTLRINTTTNEIFYCTFRRLDPEENHAAELVIPELPLAHPPNER
B4: variant PD-L1 I36T/M97L/Q155H/F193S/N201Y Fc fusion (Fc fusion)
chain: FTVTVPKDLYVVEYGSNMTIECKFPVEKQLDLAALTVYWEMEDKNIIQFVHGEEDLKVQHSSYRQRARLLKDQLSLGNAALQITDVKLQDAGVYRCLISYGGADYKRITVKVNAPYNKINQRILVVDPVTSEHELTCQAEGYPKAEVIWTSSDHHVLSGKTTTTNSKREEKLFNVTSTLRINTTTNEIFYCTSRRLDPEEYHTAELVIPELPLAHPPNER
B5: variant PD-L1 N17D/M97L/S99G Fc fusion (Fc fusion)
chain: FTVTVPKDLYVVEYGSDMTIECKFPVEKQLDLAALIVYWEMEDKNIIQFVHGEEDLKVQHSSYRQRARLLKDQLSLGNAALQITDVKLQDAGVYRCLIGYGGADYKRITVKVNAPYNKINQRILVVDPVTSEHELTCQAEGYPKAEVIWTSSDHQVLSGKTTTTNSKREEKLFNVTSTLRINTTTNEIFYCTFRRLDPEENHTAELVIPELPLAHPPNER
B6: variant PD-L1 I36T/I83T/M97L/K144E/P198T Fc fusion (Fc fusion)
chain: FTVTVPKDLYVVEYGSNMTIECKFPVEKQLDLAALTVYWEMEDKNIIQFVHGEEDLKVQHSSYRQRARLLKDQLSLGNAALQTTDVKLQDAGVYRCLISYGGADYKRITVKVNAPYNKINQRILVVDPVTSEHELTCQAEGYPEAEVIWTSSDHQVLSGKTTTTNSKREEKLFNVTSTLRINTTTNEIFYCTFRRLDTEENHTAELVIPELPLAHPPNER
B7: ICOSL ECD-Fc N52S (Fc fusion)
chain: DTQEKEVRAMVGSDVELSCACPEGSRFDLNDVYVYWQTSESKTVVTYHIPQSSSLENVDSRYRNRALMSPAGMLRGDFSLRLFNVTPQDEQKFHCLVLSQSLGFQEVLSVEVTLHVAANFSVPVVSAPHSPSQDELTFTCTSINGYPRPNVYWINKTDNSLLDQALQNDTVFLNMRGLYDVVSVLRIARTPSVNIGCCIENVLLQQNLTVGSQTGNDIGERDKITENPVSTGEKNAAT
B8: ICOSL ECD-Fc N52S/D158G (Fc fusion)
chain: DTQEKEVRAMVGSDVELSCACPEGSRFDLNDVYVYWQTSESKTVVTYHIPQSSSLENVDSRYRNRALMSPAGMLRGDFSLRLFNVTPQDEQKFHCLVLSQSLGFQEVLSVEVTLHVAANFSVPVVSAPHSPSQDELTFTCTSINGYPRPNVYWINKTGNSLLDQALQNDTVFLNMRGLYDVVSVLRIARTPSVNIGCCIENVLLQQNLTVGSQTGNDIGERDKITENPVSTGEKNAAT
B9: ICOSL ECD-Fc N52D (Fc fusion)
chain: DTQEKEVRAMVGSDVELSCACPEGSRFDLNDVYVYWQTSESKTVVTYHIPQDSSLENVDSRYRNRALMSPAGMLRGDFSLRLFNVTPQDEQKFHCLVLSQSLGFQEVLSVEVTLHVAANFSVPVVSAPHSPSQDELTFTCTSINGYPRPNVYWINKTDNSLLDQALQNDTVFLNMRGLYDVVSVLRIARTPSVNIGCCIENVLLQQNLTVGSQTGNDIGERDKITENPVSTGEKNAAT
B10: ICOSL ECD-Fc N52S/Y146C/Y152C (Fc fusion)
chain: DTQEKEVRAMVGSDVELSCACPEGSRFDLNDVYVYWQTSESKTVVTYHIPQSSSLENVDSRYRNRALMSPAGMLRGDFSLRLFNVTPQDEQKFHCLVLSQSLGFQEVLSVEVTLHVAANFSVPVVSAPHSPSQDELTFTCTSINGCPRPNVCWINKTDNSLLDQALQNDTVFLNMRGLYDVVSVLRIARTPSVNIGCCIENVLLQQNLTVGSQTGNDIGERDKITENPVSTGEKNAAT
B11: ICOSL ECD-Fc F120S/Y152H/N201S (Fc fusion)
chain: DTQEKEVRAMVGSDVELSCACPEGSRFDLNDVYVYWQTSESKTVVTYHIPQNSSLENVDSRYRNRALMSPAGMLRGDFSLRLFNVTPQDEQKFHCLVLSQSLGFQEVLSVEVTLHVAANSSVPVVSAPHSPSQDELTFTCTSINGYPRPNVHWINKTDNSLLDQALQNDTVFLNMRGLYDVVSVLRIARTPSVNIGCCIESVLLQQNLTVGSQTGNDIGERDKITENPVSTGEKNAAT
B12: ICOSL ECD-Fc N52S/Y152H (Fc fusion)
chain: DTQEKEVRAMVGSDVELSCACPEGSRFDLNDVYVYWQTSESKTVVTYHIPQSSSLENVDSRYRNRALMSPAGMLRGDFSLRLFNVTPQDEQKFHCLVLSQSLGFQEVLSVEVTLHVAANFSVPVVSAPHSPSQDELTFTCTSINGYPRPNVHWINKTDNSLLDQALQNDTVFLNMRGLYDVVSVLRIARTPSVNIGCCIENVLLQQNLTVGSQTGNDIGERDKITENPVSTGEKNAAT
B13: Variant CD80 E35G/K54E/A71D/L72P Fc fusion (Fc fusion)
chain: VIHVTKEVKEVATLSCGHNVSVEELAQTRIYWQKGKKMVLTMMSGDMNIWPEYENRTIFDITNNLSIVILDPRPSDEGTYECVVLKYEKDAFKREHLAEVT
B14: variant PD-L2 IgV H15Q/Q72H/V89D Fc fusion (Fc fusion)
chain: LFTVTVPKELYIIEQGSNVTLECNFDTGSHVNLGAITASLQKVENDTSPHRERATLLEEQLPLGKASFHIPHVQVRDEGQYQCIIIYGDAWDYKYLTLKVKA
B15: variant PD-L2 IgV H15Q/N24S/T47A/Q72H/R76G/V89D Fc fusion (Fc fusion)
chain: LFTVTVPKELYIIEQGSNVTLECSFDTGSHVNLGAITASLQKVENDASPHRERATLLEEQLPLGKASFHIPHVQVGDEGQYQCIIIYGDAWDYKYLTLKVKA
B16: variant PD-L2 IgV I13V/H15Q/T37A/E44D/S48C/S67L/Q82R/V89D Fc fusion (Fc fusion)
chain: LFTVTVPKELYIVEQGSNVTLECNFDTGSHVNLGAIAASLQKVDNDTCPHRERATLLEEQLPLGKALFHIPQVQVRDEGQYRCIIIYGDAWDYKYLTLKVKA
B17: variant PD-L2 IgV I13V/H15Q/T47A/R76G/V89D Fc fusion (Fc fusion)
chain: LFTVTVPKELYIVEQGSNVTLECNFDTGSHVNLGAITASLQKVENDASPHRERATLLEEQLPLGKASFHIPQVQVGDEGQYQCIIIYGDAWDYKYLTLKVKA
B18: PD-L1 IgV-Fc I20L/I36T/N45D/I47T (Fc fusion)
chain: FTVTVPKDLYVVEYGSNMTLECKFPVEKQLDLAALTVYWEMEDKDITQFVHGEEDLKVQHSSYRQRARLLKDQLSLGNAALQITDVKLQDAGVYRCMISYGGADYKRITVKVNA
B19: Full length ECD of PD-L2, Fc fusion (Fc fusion)
chain: LFTVTVPKELYIIEHGSNVTLECNFDTGSHVNLGAITASLQKVENDTSPHRERATLLEEQLPLGKASFHIPQVQVRDEGQYQCIIIYGVAWDYKYLTLKVKASYRKINTHILKVPETDEVELTCQATGYPLAEVSWPNVSVPANTSHSRTPEGLYQVTSVLRLKPPPGRNFSCVFWNTHVRELTLASIDLQSQMEPRTHPT

How the values were obtained:
[1] = molecular target: T1, CD96 (human) (UniProt P40200); assay: flow cytometry, transfected HEK293 cells
T1 sequence: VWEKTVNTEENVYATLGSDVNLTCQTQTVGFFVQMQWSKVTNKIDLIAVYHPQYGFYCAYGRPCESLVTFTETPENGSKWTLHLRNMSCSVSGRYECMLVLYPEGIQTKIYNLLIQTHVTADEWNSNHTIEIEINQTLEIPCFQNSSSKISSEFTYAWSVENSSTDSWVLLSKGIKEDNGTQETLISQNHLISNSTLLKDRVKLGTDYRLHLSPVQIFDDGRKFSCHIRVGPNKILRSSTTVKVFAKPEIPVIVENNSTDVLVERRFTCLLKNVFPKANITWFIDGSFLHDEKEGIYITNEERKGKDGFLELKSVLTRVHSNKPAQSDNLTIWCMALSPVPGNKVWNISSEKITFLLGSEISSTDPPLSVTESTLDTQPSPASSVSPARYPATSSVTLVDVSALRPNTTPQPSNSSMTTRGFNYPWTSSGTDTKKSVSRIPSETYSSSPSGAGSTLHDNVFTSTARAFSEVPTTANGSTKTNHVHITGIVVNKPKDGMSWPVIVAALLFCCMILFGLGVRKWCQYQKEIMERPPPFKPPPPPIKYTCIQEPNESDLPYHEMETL

[2] = molecular target: CD80 (human); assay: flow cytometry, cells expressing CD80, 20 nM
CD80 (human), sequence (chain, as listed by the source): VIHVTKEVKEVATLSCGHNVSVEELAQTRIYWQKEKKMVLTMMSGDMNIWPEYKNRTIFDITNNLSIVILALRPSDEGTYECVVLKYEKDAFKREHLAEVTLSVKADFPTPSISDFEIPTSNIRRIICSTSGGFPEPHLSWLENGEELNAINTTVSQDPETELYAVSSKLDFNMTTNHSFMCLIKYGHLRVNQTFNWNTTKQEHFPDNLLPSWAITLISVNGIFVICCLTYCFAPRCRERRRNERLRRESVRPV

[3] = molecular target: human PD-1 (human) (UniProt Q15116); assay: flow cytometry, cells expressing PD-1, 20 nM
human PD-1 (human), sequence (Q15116 25-288): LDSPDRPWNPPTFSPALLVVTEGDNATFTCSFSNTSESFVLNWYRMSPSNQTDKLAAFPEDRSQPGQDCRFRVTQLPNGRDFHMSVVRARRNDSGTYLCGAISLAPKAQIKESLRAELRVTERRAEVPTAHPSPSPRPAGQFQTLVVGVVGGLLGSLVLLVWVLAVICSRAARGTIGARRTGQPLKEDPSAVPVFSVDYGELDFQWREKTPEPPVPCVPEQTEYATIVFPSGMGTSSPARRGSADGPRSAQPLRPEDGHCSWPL

[4] = substrate: ICOS as used in the OD read-out of Table E15A (Homo sapiens (Human)) (UniProt Q9Y6W8); assay: OD read-out, format not told
[5] = molecular target: CD28, full-length, expressed on transfected cells (Homo sapiens (Human)) (UniProt P10747); assay: flow cytometry, cells expressing target
[6] = molecular target: PD-L1 (human); assay: flow cytometry on HEK293 cells transfected with PD-L1
PD-L1 (human), sequence (chain, as listed by the source): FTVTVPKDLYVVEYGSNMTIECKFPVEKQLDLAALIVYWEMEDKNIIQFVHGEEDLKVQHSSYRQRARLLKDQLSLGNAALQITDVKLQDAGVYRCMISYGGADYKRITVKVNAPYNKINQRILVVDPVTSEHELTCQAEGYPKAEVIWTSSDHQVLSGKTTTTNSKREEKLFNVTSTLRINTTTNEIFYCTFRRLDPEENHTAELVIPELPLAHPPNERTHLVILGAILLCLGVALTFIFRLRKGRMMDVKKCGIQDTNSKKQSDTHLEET

[7] = molecular target: human PD-1 (human) (UniProt Q15116)
[8] = molecular target: human PD-1 (human) (UniProt Q15116); assay: flow cytometry, Jurkat/PD-1 cells, 50 nM
[9] = molecular target: PD-1-Fc (human) (UniProt Q15116); assay: ForteBio Octet, PD-1 on anti-human capture sensor, 100 nM
PD-1-Fc (human), sequence (Q15116 25-167 limits assumed): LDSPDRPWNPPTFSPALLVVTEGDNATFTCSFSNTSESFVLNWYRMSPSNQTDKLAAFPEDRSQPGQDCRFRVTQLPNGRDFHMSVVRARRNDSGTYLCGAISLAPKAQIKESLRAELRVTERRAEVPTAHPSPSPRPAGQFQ

[10] = molecular target: human PD-1 (human) (UniProt Q15116); assay: flow cytometry, Jurkat/PD-1 cells

OD [4] | parental ratio [4] | MFI [5] | parental ratio [5] | also measured | Binder
– | – | – | – | MFI at 100 nM [1]: 3750 | B1
– | – | – | – | MFI at 20 nM [2]: 11000 MFI | B2
– | – | – | – | MFI at 20 nM [3]: 70 MFI | B3
– | – | – | – | MFI at 20 nM [2]: 1250 MFI | B4
– | – | – | – | MFI at 20 nM [3]: 10100 MFI | B5
– | – | – | – | MFI at 20 nM [3]: 62 MFI | B6
1.33 OD | 1.55 ratio to WT | 162 MFI | 9 ratio to WT | – | B7
1.33 OD | 1.55 ratio to WT | 39 MFI | 2.17 ratio to WT | – | B8
1.59 OD | 1.85 ratio to WT | 130 MFI | 7.22 ratio to WT | – | B9
1.26 OD | 1.47 ratio to WT | 39 MFI | 2.17 ratio to WT | – | B10
0.63 OD | 0.73 ratio to WT | 16 MFI | 0.89 ratio to WT | – | B11
0.85 OD | 0.99 ratio to WT | 68 MFI | 3.78 ratio to WT | – | B12
– | – | – | – | MFI at 22.2 nM [6]: 1580 MFI | B13
– | – | – | – | IFN gamma levels pg/mL (MLR) [7]: 1270 pg/mL; MFI at 50 nM [8]: 12600 MFI | B14
– | – | – | – | IFN gamma levels pg/mL (MLR) [7]: 1090 pg/mL; Fortebio Response Units (Response Units) [9]: 0.4 | B15
– | – | – | – | IFN gamma levels pg/mL (MLR) [7]: 1750 pg/mL; Fortebio Response Units (Response Units) [9]: 1.25 | B16
– | – | – | – | IFN gamma levels pg/mL (MLR) [7]: 1250 pg/mL; Fortebio Response Units (Response Units) [9]: 1.6 | B17
– | – | – | – | Fold increase over wildtype PD-L1 IgV-Fc [10]: 0.6 fold; MFI at 50 nM [10]: 3120 | B18
– | – | – | – | IFN gamma levels pg/mL (MLR) [7]: 1170 pg/mL; MFI at 50 nM [8]: 2140 MFI | B19

— patent publication US20250163127A1
